# Source: the nanobody polyreactivity screen of Harvey et al. (2022)
# Assay: yeast display, Sf9 membrane polyspecificity reagent, FACS + sequencing; frameworks hold sequencing errors
# In short: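 Nanobodies came from a synthetic yeast display library in Saccharomyces cerevisiae BJ5465, induced with galactose for 36–48 hours and stained for 1 hour at 4 °C with 10% biotinylated, detergent-solubilized Sf9 membrane reagent. Cells were enriched on streptavidin microbeads and then FACS-sorted, with low and high (top ~1%) gates set on anti-HA fluorescence for expression and streptavidin fluorescence for reagent binding. Each polyreactivity label reflects the gate a clone came from. Genes were amplified by colony PCR, sequenced by MiSeq 2 × 250 and filtered by CDR length.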
row,Sequence,polyreactivity (PSR sort gate)
1,QVQLVESGGGLVQAGGSLRLSCAASGSTFGVYAMGWYRQAPGKERELVAAISGSGAGTYYADSVKGRFTISRDNAKNTVYLQMNSLKPEDTAVYYFNKVSVRGQRYGYWGQGTQVTVSS,high polyreactivity
2,QVQLVESGGGLVQAGGSLRLSCAASGRIFWRNAMVWYRQAPGKERELVAAISGSGGSTSYADSVKGRFTISRDNAKNTVYLQMNSLKPEDTAVYYCAAKYYYNWHRQGYDYWGQGTQVTVSS,high polyreactivity
3,QVQLVESGGGLVQAGGSLRLSCAASGFTFGHYAMGWYRQAPGKERELVAAIRWSGGSTYYADSVKGRITISRDHAKNTVYLQMNSLKPEDTAVYYCGARRFDGYDYDYWGQGTQVTESS,low polyreactivity
4,QVQLVESGGGLVQAGGSLRLSCAASGSTFLLYDMGWYRQAPGKERELVAAITWSGGSTYYADSVKGRFTISRDNAKNTVYLQMNSLKPEDTAVYYCAADSLGDRYYYWGQGTQVTVSS,low polyreactivity
5,QVQLVESGGGLVQAGGSLRLSCAASGRTFGSNAMGWYRQAPGKERELVAVISRRAGSTYADSVKGRFTISRDNAKNTVYLQMNSLKPEDTAVYYCATRWLYHQYYYWGQGTQVTVSS,high polyreactivity
6,QFQLVESGRGLVQAGGSLRLSCAASGSIFYSYAMGRYRQAPGKEREFVATISDSSGSTYYADSVKGRFTISRDNAKNTVYLQMNSMIPEDTAVYYCATTDSYGYYGYGDWGQGTQVTVSS,low polyreactivity
7,QVQLVESGGGLVQAGGSLRLSCAASGNAMGWYRQAPGKERELVASINRSGGRTYYADSVKGRFTISRDNAKNTVYLQMISLKPEDTAVYYCGARPHYDSDYWGQGTQVTVSS,low polyreactivity
8,QVQREESGGGLVQAGGSLRLSCAASGFTFRYYAMGRYRQAPGKERELVAAITWSGGSTYYADSVKGRFTISRDNAKNTVYLQLNSLKPEDTAVYYCNVEAVAWWPEEDYWGQGTQVTVSS,high polyreactivity
9,QVQLVESGGGLVQAGGSLRLSFAASGSTLGQNAMGWYRQARGKERELVAASSSGGRTYYADSVKGRFTISRDNAKNTVYLQMNSLNPEDTAVYYCNAVAYSLSGYNSWGQGTQVTVSS,high polyreactivity
10,QVQLVESGGGLVQAGGSLRLSCAASGLTFRYYAMGWYRQAPGKERELVAAISSRGASTYYADSVKGRFTISRDNAKNTVYLQMNSLKPEDTAVYYCAVRTYVYHWSFSSLPYDYWGQGTQVTVSS,high polyreactivity
11,QVQLVESGGGLVQAGGSLRLSCDASGSIFAKNAMGWYRQAPGKERELVAAIDLNGGSTYYADSVKGRFTISRDTAKNTVYLQMNILKPEDTAVYYCDVYYGHSCVIRSSPEYDSWGQGTQVTVSS,low polyreactivity
12,QVQLVESGGGLVQAGGSLRLSCAASGSIFPIYAMGWYRQAPGKERELVAAIDSSGGSTYYADSVKGRFTISRDNAKNTVYLQMNSLKPEDTAVYYCAADFGSKSTPYDYWGQGTQVTVSS,low polyreactivity
13,QVQLVESGGGLVQAGGSLRLSCAPSGIIFYVYAIGWYRQAPGMERELVADITYGDRTNYADSVNGRFTISRDNAKNTVYLQMNSLKPEDTAVYYCAAKRNVLLGYTDQSLYDYWGQGTQVTVSS,low polyreactivity
14,QVQLVESGGGLVQAGGSLRLSCAASGRIFCKYAMGWYIQAPGKERELVAAISRSGASTYYADSVKGRFTISRDNAKNTVYLQMNSLKPEDTAVYYCAAVPPYNYRFRVYYWGQGTQVTVSS,high polyreactivity
15,QVQLVESGGGLVQAGGSLRLSCAASGFTFARNAMGWYRQAPGKERELVAAINRSGGSTYYADSVKGRFTISRDNAKNTVYLQMNSLKPEDTAVYYCNKPRLAQQGYDYWGQGTQVTVSS,high polyreactivity
16,QVQLVESGVGLVQAGGSLRLSCAASGIIFKVYAMGWYRQAPGKERELVAAISKSGGSTYYADSVKGRFTISRDNAKNTVYLQMNSLKPEDTAVYYCAARDYARYASYYYWGLGTQVTVSS,high polyreactivity
17,QVQLVESGGGLVQAGGSLRLSCAASGRIVDIYAMGWYRQAPGTERELVAAITWRGGSTYYADSVKGRFTISRDNAKNTVYLQMNSLKPEDTAVYYCAVDFFTPRGSYYWGQGTQVTVSS,low polyreactivity
18,QVQLVESGGGLVQAGGSLRLSCAASGFTLYTYAMGWYRQAPGKERELVAAISTGGGRTYYADSVKGRFTISRDNAKNTVYLQMNSLKPEDTAVYYCAADSLAKTGGTVGGDYWGQGTQVSVSS,high polyreactivity
19,QVQLEESGGGLVQAGGSLRLSCAASGRISGFNAMGWYRKAPGKEREFVAAISYRGGYTYADSVKGRFTISRDNAKNTVYLQMNSLKPEDTAVYYCNALWRGHGRYNYWGQGTQVNVSS,low polyreactivity
20,QVQLVESGGGLVQAGGSLRLSCAASGRILYYYAMGWYRQAPGKERELVATITRTTGSTYYADSVKGRFTISRDNAKNTVYLQMNSLKPEDTAVYYCAARWGRWIRDNYWGQGTQVSVSS,high polyreactivity
21,QVQLVESGGGLVQAGGSLRLSCAASGSTFGFNALGWYRQAPGKERELVAAITFSGGTTYYADSVKGRFTISRDNAKNTVYLQMNSLKPEDTAVYYCNADVKRDRVWGGDYWGQGTQVTVSS,low polyreactivity
22,QVHLVESGGGLVQAGGSLRLSCAASGLIIRYYAMGWYRQAPWKERELVAAITSRGGSTYYADSVKGRFKISRDNAKNTVYLQMNSLKPEDTAVYSCAAGLIFVSRFYVPYDYWGQGTQVTVSS,high polyreactivity

row,Sequence,polyreactivity (PSR sort gate)
1,QVQLVESGGGLVQAGGSLRLSCAASGSIFTYYTMGLYRQAPGKERELVADITGGGSSTYYADSVKGRFTISRDNAKNTVYLQMNSLKPEDTAVYYCAADKYWAQNDYWGQGTQVTVSS,low polyreactivity
2,QVQHVESGGGLVQAGGSLRLSCAASGSIFTGNAMGWYRQAPGKEREFVAAITNGGITNYADSVKGRFTISRDNAKNTVYLQMNSLKPEDTAVYYCAADYVDFYSFRRFDYWGQGTQVTVSS,low polyreactivity
3,QVQLVESGGGLDQAGGSLRLTCAASGFTFTIYAMGWYRQAPGKERELVATISGRAGRTYYADSVMGRFTISRDNAKNTVSLQMTSLKPEDTAVYYCNAGQWRYPGLYYYWGQGTQVNVSS,high polyreactivity
4,QVQLVESGGGLVQAGGSLRLSCAASGSIFKDYAMGWYRQAPGKERELVAAITSGGRTNYADSVKGRFTISRDNAKNTVYLQMNSLKPEDTAVYYCAARKGKETLYHSTPPYYYWGQGTQVTVSS,low polyreactivity
5,QVQLVESGGGLVQAGGSLRLSCAASGRTFGINAMGWYRQAPGKERELVADITDSGVSTYYADSVKGRFTISRDNAKNTVYLQMNSLKPEDTAVYYCNTGSYLFFLYGDDYWGQGTQVTVSS,low polyreactivity
6,QVQLVESGGGLVQAGGSLRISCAASGSIFDRNAMGWYRQAPGKERELVAGISSGGGTNYADSVKGRFTISRDNAKNTVYFQMNSLKPEDTAVYYCAVYRYLSNRVKYDYWGQGTQVTVSS,low polyreactivity
7,QVQLVESGGGLVQAGGSLRLRCAASGIIFTDYAMGWYRQAPGKERELVAAISSGGGSTYYAHSVKGRFTISRDNAKNTVYFLMNSLKPDVTAVYYCAAEGYLISGAGDYLYDYYWGQGTQVTVSS,high polyreactivity
8,QVQLVESGGGLVQAGGSLRLSCAASGSIFIPYAMGWYRQAPGKERELVAAISGSGTSTNYADSVKGRFTISRDNAKNTVYLQMNSLKPEDTAVYYCAARLPYGYLRSKFYYWGQGTQVTVSS,high polyreactivity
9,QVQLVESGGGLVQAGGSLRLSCAASGRIFYTNAMGWYRQAPGKESELVAVISWGGDTTYYADSVKGRFTISRDNAKYTVYLQMNSLKPDDTADYYFNADWGPTYEIYDSWGQGTQVTVSS,low polyreactivity
10,QVQLVESGGGLVQAGGSLRLSCAASGFTFVYYAMGWYRQAPGKERELVAAISGRGGSTYYADSVKGRFTISRDNAKNTVYLQMNSLKPEDTAVYYCATTYSWYYVPDKTHIYYYWGQGTQVTVSS,low polyreactivity
11,QDQLVESGVGLVQAGGSLRLSCAASGSIFHGNAMGWYRQAPGKERELVATISSGGSTYYADSVKGRFTISRDNAKNTVYLQMNSLKPEDTAVYYCAAERFWPYKSYYWGQGTQVTVSS,low polyreactivity
12,QVQLVESGGCLVQAGGSLRLSCAASGRTFYTNGMGWYRQAPGKEREFVAGITYRGGGTYYADSVKGRFTISRDNAQNTVYLQMNSLKPEDTAVYYCAARYYRDYRWYTYAYDYWGQGTQVTVSS,high polyreactivity
13,QVQLVESGGGLVQAGGSLRLSCAASGRIFGGYAMGGYRQAPGKERELVAAISSRGTRTYYADSVKGRITISRDNAKNTVYLQMNSLKPEDTAVYYCATAYRGFHYSPLRELDYWGQGTQVTVSS,high polyreactivity
14,QVQLVESGGGLVQAGGSLRLSCAASGLTFPYYAMGWYRQAPGKERELVASISWSGASTYYADSVKGRSTISRDYAKNTVYLQMNSLKPEDTAVYYCNAGFYGSYDYWGQGTQVTVSS,high polyreactivity
15,QVQLVETGGGLVQAGGSLRLSCAASGSIFWSNAMGWYRQAPGKERELVAAITSGGRTYYADSVKGRFTISRDNAKNTVYLQMNSLKPEDTAVYYCAAYWNSATGFDYWGQVTQVTVSS,high polyreactivity
16,QVQLVESGGGLVQAGGSLRLSCAASGFIFRNYAMGWSRQAPGKERELVAAITRSGTSTYYADSVKGRFTISRDNAKNTVYLQMNSLKPEDTAVYYCNAGWGLRLSWLGNYWGQGTQVTVSS,high polyreactivity
17,QVQLVESGGGLVQAGGSLRLSCAASGRIFWSYAMGWYRQAPGKERELVAAINSGGSTNYADSVKGRFTISRDNAKNTVYLQMNSLKPEDTAVYYCAAGFYYVYVWLGEYWVQGTQVTVSS,low polyreactivity
18,QVQLVETCGGIVQAGGSLRLSCAASGITFALYAMGWYRESPGKERELVAAISYSGGRSYYADSVKGRFTISRDHAQNTVNLQMNSLKPEDTAVYYCAAGGSGSGPYGYGYWGQGTKVTVSS,high polyreactivity
19,QVQLVESGGGLVQAGGSLRLSCAASGSIFSAYAMGWYRQAPGKERELVAAISSRGGSTYYADSVKGRFTISRDNAKNTVYLQMNSLKPEDTAVDYCAARVRHSAYDYWGQGTQVTVSS,high polyreactivity
20,QVQLVESGGALVQAGGSLRLSCAASGFTFRSYVMGWYRQAPGKERELVAAISGSGASTYYADSVKGRFTLSRDNAKNTVYLQMNSLKPEDTAVYYCAATSPYKYWYRYNYWGHGTQVTVSS,high polyreactivity
21,QVQLVESGGGLVQAGGSLRLSCAASGGTIAGYAMGWYRQAPGKARELVASISDGGSTNYADSVKGRFTISRDNAKNTVYLQMNSLKPEDTAVYYCAVQGSRTENYDWYYYWGQGTQVTVSS,low polyreactivity
